Source: US20090280138A1 (OXFORD BIOMEDICA UK, published 2009)

Legend:
[1] = target: T1, MHC class I molecule A*0201 (biotin (bound via biotin to streptavidin-coated plates)); test: iTopia affinity assay (ED50), peptide titration on plate-bound MHC
T1 construct: also called A2; HLA-A2
Protocol: (§1) The 9 mers were tested for Peptide Binding, Off Rate and Affinity using iTopia Epitope Discovery System in accordance with the manufacturer's instructions. Briefly, 96 well microtitre plates coated with MHC molecules representing different MHC alleles are used to identify candidate peptides. […] Determinations are performed in duplicate using an ELISA plate reader and included allele specific positive controls.
Dose-response curves of peptide binding to MHC were prepared by peptide titration to determine the ED50 measurement for each peptide. Values for the concentrations tested (in duplicate) were obtained as a percentage of the highest (9000×) concentration of the positive control peptide. A dose-response curve was generated using GraphPad Prism® curve fitting software, which automatically calculated the ED50 (in Molarity) for each peptide.

[2] = target: T2, MHC class I allele A*0201 monomer (human, biotinylated, bound to streptavidin-coated plate); test: iTopia, multiparametric iScore
T2 construct: also called A2; HLA-A2
Protocol: as §1
Finally, multiparametric analysis is performed on the results from these assays and an iScore is generated. The iScore represents a measure of the overall quality of peptide-MHC binding, enabling candidate peptides to be ranked in order of binding quality and allowing rational prioritisation of peptides for functional cellular follow-up studies.

[3] = target: T3, MHC class I molecule A*0101 (biotin (bound to streptavidin-coated plate)); test: iTopia peptide binding assay
T3 construct: iTopia monomer stripped of placeholder peptide and b2M, then reconstituted with test peptide and fresh b2M; also called A1; HLA-A1
Outline: (§2)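 In this kit-based ELISA, nonamer peptides are scored in duplicate for binding to plate-bound MHC under standardized optimal conditions, alongside allele-specific positive controls. Peptides classed as binders proceed to dissociation and affinity experiments.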

[4] = target: T4, MHC class I molecule A*0201 (biotin (bound to streptavidin-coated plate)); test: iTopia peptide binding assay
T4 construct: iTopia monomer stripped of placeholder peptide and b2M, then reconstituted with test peptide and fresh b2M; also called A2; HLA-A2
Outline: as §2

[5] = target: T5, MHC class I molecule A*0301 (biotin (bound to streptavidin-coated plate)); test: iTopia peptide binding assay
T5 construct: iTopia monomer stripped of placeholder peptide and b2M, then reconstituted with test peptide and fresh b2M; also called A3; HLA-A3
Outline: as §2

[6] = target: T6, MHC class I molecule B*0702 (biotin (bound to streptavidin-coated plate)); test: iTopia peptide binding assay
T6 construct: iTopia monomer stripped of placeholder peptide and b2M, then reconstituted with test peptide and fresh b2M; also called B7; HLA-B7
Outline: as §2

Binder: SSAPFLASA [5T4 9 mer peptide 22 (SSAPFLASA)]
- EC50 [1]: 0.3 µM

Binder: PALCECSEA [5T4 9 mer peptide 32 (PALCECSEA)]
- EC50 [1]: 4 µM

Binder: FLTGNQLAV [5T4 9 mer peptide 49 (FLTGNQLAV)]
- EC50 [1]: 1 µM

Binder: PLADLSPFA [5T4 9 mer peptide 77 (PLADLSPFA)]
- EC50 [1]: 2 µM

Binder: AFSGSNASV [5T4 9 mer peptide 81 (AFSGSNASV)]
- EC50 [1]: 7 µM

Binder: ILNHIVPPE [5T4 9 mer peptide 90 (ILNHIVPPE)]
- EC50 [1]: 6 µM

Binder: GMVVAALLA [5T4 9 mer peptide 99 (GMVVAALLA)]
- EC50 [1]: 0.6 µM

Binder: LDLSNNSLV [5T4 9 mer peptide 120 (LDLSNNSLV)]
- EC50 [1]: 20 µM

Binder: FLTGNQLAV [5T4 9-mer peptide 49]
- iScore [2]: 0.791

Binder: LAELAALNL [5T4 9-mer peptide 59]
- iScore [2]: 0.72

Binder: PLADLSPFA [5T4 9-mer peptide 77]
- iScore [2]: 0.556

Binder: DCHMADMVT [5T4 9-mer peptide 150 (DCHMADMVT)]
- binding, % of positive control peptide [3]: 0 % of positive control
- binding, % of positive control peptide [4]: 7 % of positive control
- binding, % of positive control peptide [5]: 3 % of positive control
- binding, % of positive control peptide [6]: 5 % of positive control

Binder: ADMVTWLKE [5T4 9-mer peptide 152 (ADMVTWLKE)]
- binding, % of positive control peptide [3]: 0 % of positive control
- binding, % of positive control peptide [4]: 6 % of positive control
- binding, % of positive control peptide [5]: 4 % of positive control
- binding, % of positive control peptide [6]: 8 % of positive control

Binder: LKETEVVQG [5T4 9-mer peptide 155 (LKETEVVQG)]
- binding, % of positive control peptide [3]: 0 % of positive control
- binding, % of positive control peptide [4]: 3 % of positive control
- binding, % of positive control peptide [5]: 4 % of positive control
- binding, % of positive control peptide [6]: 3 % of positive control

Binder: ETEVVQGKD [5T4 9-mer peptide 156 (ETEVVQGKD)]
- binding, % of positive control peptide [3]: 0 % of positive control
- binding, % of positive control peptide [4]: 1 % of positive control
- binding, % of positive control peptide [5]: 3 % of positive control
- binding, % of positive control peptide [6]: 1 % of positive control

Binder: VQGKDRLTC [5T4 9-mer peptide 158 (VQGKDRLTC)]
- binding, % of positive control peptide [3]: 0 % of positive control
- binding, % of positive control peptide [4]: 4 % of positive control
- binding, % of positive control peptide [5]: 6 % of positive control
- binding, % of positive control peptide [6]: 6 % of positive control

Binder: GKDRLTCAY [5T4 9-mer peptide 159 (GKDRLTCAY)]
- binding, % of positive control peptide [3]: 3 % of positive control
- binding, % of positive control peptide [4]: 6 % of positive control
- binding, % of positive control peptide [5]: 6 % of positive control
- binding, % of positive control peptide [6]: 4 % of positive control

Binder: DRLTCAYPE [5T4 9-mer peptide 160 (DRLTCAYPE)]
- binding, % of positive control peptide [3]: 0 % of positive control
- binding, % of positive control peptide [4]: 6 % of positive control
- binding, % of positive control peptide [5]: 5 % of positive control
- binding, % of positive control peptide [6]: 3 % of positive control

Binder: LTCAYPEKM [5T4 9-mer peptide 161 (LTCAYPEKM)]
- binding, % of positive control peptide [3]: 16 % of positive control
- binding, % of positive control peptide [4]: 40 % of positive control
- binding, % of positive control peptide [5]: 8 % of positive control
- binding, % of positive control peptide [6]: 6 % of positive control

Binder: CAYPEKMRN [5T4 9-mer peptide 162 (CAYPEKMRN)]
- binding, % of positive control peptide [3]: 0 % of positive control
- binding, % of positive control peptide [4]: 11 % of positive control
- binding, % of positive control peptide [5]: 4 % of positive control
- binding, % of positive control peptide [6]: 3 % of positive control

Binder: MRNRVLLEL [5T4 9-mer peptide 165 (MRNRVLLEL)]
- binding, % of positive control peptide [3]: 0 % of positive control
- binding, % of positive control peptide [4]: 6 % of positive control
- binding, % of positive control peptide [5]: 4 % of positive control
- binding, % of positive control peptide [6]: 13 % of positive control

Binder: LELNSADLD [5T4 9-mer peptide 168 (LELNSADLD)]
- binding, % of positive control peptide [3]: 0 % of positive control
- binding, % of positive control peptide [4]: 3 % of positive control
- binding, % of positive control peptide [5]: 5 % of positive control
- binding, % of positive control peptide [6]: 3 % of positive control

Binder: LNSADLDCD [5T4 9-mer peptide 169 (LNSADLDCD)]
- binding, % of positive control peptide [3]: 0 % of positive control
- binding, % of positive control peptide [4]: 0 % of positive control
- binding, % of positive control peptide [5]: 3 % of positive control
- binding, % of positive control peptide [6]: 0 % of positive control

Binder: SADLDCDPI [5T4 9-mer peptide 170 (SADLDCDPI)]
- binding, % of positive control peptide [3]: 0 % of positive control
- binding, % of positive control peptide [4]: 4 % of positive control
- binding, % of positive control peptide [5]: 4 % of positive control
- binding, % of positive control peptide [6]: 3 % of positive control

Binder: DLDCDPILP [5T4 9-mer peptide 171 (DLDCDPILP)]
- binding, % of positive control peptide [3]: 0 % of positive control
- binding, % of positive control peptide [4]: 0 % of positive control
- binding, % of positive control peptide [5]: 4 % of positive control
- binding, % of positive control peptide [6]: 3 % of positive control

Binder: DCDPILPPS [5T4 9-mer peptide 172 (DCDPILPPS)]
- binding, % of positive control peptide [3]: 0 % of positive control
- binding, % of positive control peptide [4]: 0 % of positive control
- binding, % of positive control peptide [5]: 3 % of positive control
- binding, % of positive control peptide [6]: 0 % of positive control

Binder: DPILPPSLQ [5T4 9-mer peptide 173 (DPILPPSLQ)]
- binding, % of positive control peptide [3]: 0 % of positive control
- binding, % of positive control peptide [4]: 7 % of positive control
- binding, % of positive control peptide [5]: 4 % of positive control
- binding, % of positive control peptide [6]: 0 % of positive control

Binder: LGIVLALIG [5T4 9-mer peptide 180 (LGIVLALIG)]
- binding, % of positive control peptide [3]: 0 % of positive control
- binding, % of positive control peptide [4]: 10 % of positive control
- binding, % of positive control peptide [5]: 1 % of positive control
- binding, % of positive control peptide [6]: 0 % of positive control

Binder: GAIFLLVLY [5T4 9-mer peptide 184 (GAIFLLVLY)]
- binding, % of positive control peptide [3]: 0 % of positive control
- binding, % of positive control peptide [4]: 5 % of positive control
- binding, % of positive control peptide [5]: 5 % of positive control
- binding, % of positive control peptide [6]: 0 % of positive control

Binder: IFLLVLYLN [5T4 9-mer peptide 185 (IFLLVLYLN)]
- binding, % of positive control peptide [3]: 0 % of positive control
- binding, % of positive control peptide [4]: 8 % of positive control
- binding, % of positive control peptide [5]: 0 % of positive control
- binding, % of positive control peptide [6]: 2 % of positive control

Binder: KGIKKWMHN [5T4 9-mer peptide 190 (KGIKKWMHN)]
- binding, % of positive control peptide [3]: 3 % of positive control
- binding, % of positive control peptide [4]: 14 % of positive control
- binding, % of positive control peptide [5]: 3 % of positive control
- binding, % of positive control peptide [6]: 6 % of positive control

Binder: NIRDACRDH [5T4 9-mer peptide 194 (NIRDACRDH)]
- binding, % of positive control peptide [3]: 0 % of positive control
- binding, % of positive control peptide [4]: 1 % of positive control
- binding, % of positive control peptide [5]: 0 % of positive control
- binding, % of positive control peptide [6]: 6 % of positive control

Binder: ACRDHMEGY [5T4 9-mer peptide 196 (ACRDHMEGY)]
- binding, % of positive control peptide [3]: 3 % of positive control
- binding, % of positive control peptide [4]: 8 % of positive control
- binding, % of positive control peptide [5]: 4 % of positive control
- binding, % of positive control peptide [6]: 7 % of positive control

Binder: RDHMEGYHY [5T4 9-mer peptide 197 (RDHMEGYHY)]
- binding, % of positive control peptide [3]: 11 % of positive control
- binding, % of positive control peptide [4]: 6 % of positive control
- binding, % of positive control peptide [5]: 3 % of positive control
- binding, % of positive control peptide [6]: 5 % of positive control

Binder: EGYHYRYEI [5T4 9-mer peptide 199 (EGYHYRYEI)]
- binding, % of positive control peptide [3]: 0 % of positive control
- binding, % of positive control peptide [4]: 9 % of positive control
- binding, % of positive control peptide [5]: 0 % of positive control
- binding, % of positive control peptide [6]: 4 % of positive control

Binder: YHYRYEINA [5T4 9-mer peptide 200 (YHYRYEINA)]
- binding, % of positive control peptide [3]: 0 % of positive control
- binding, % of positive control peptide [4]: 7 % of positive control
- binding, % of positive control peptide [5]: 1 % of positive control
- binding, % of positive control peptide [6]: 5 % of positive control

Binder: YRYEINADP [5T4 9-mer peptide 201 (YRYEINADP)]
- binding, % of positive control peptide [3]: 0 % of positive control
- binding, % of positive control peptide [4]: 0 % of positive control
- binding, % of positive control peptide [5]: 1 % of positive control
- binding, % of positive control peptide [6]: 3 % of positive control

Binder: INADPRLTN [5T4 9-mer peptide 203 (INADPRLTN)]
- binding, % of positive control peptide [3]: 0 % of positive control
- binding, % of positive control peptide [4]: 3 % of positive control
- binding, % of positive control peptide [5]: 1 % of positive control
- binding, % of positive control peptide [6]: 4 % of positive control

Binder: PRLTNLSSN [5T4 9-mer peptide 205 (PRLTNLSSN)]
- binding, % of positive control peptide [3]: 2 % of positive control
- binding, % of positive control peptide [4]: 8 % of positive control
- binding, % of positive control peptide [5]: 2 % of positive control
- binding, % of positive control peptide [6]: 11 % of positive control
